Measured values reported in publication PMC11833123, “A bipartite bacterial virulence factor targets the complement system and neutrophil activation” (The EMBO Journal, 2025).

T1: GST-CXCR1 (recombinant, from E. coli) (UniProt P25024 1-350)
T1 construct: CXCR1 (Uniport entry P25024), full length, gene codon optimized and synthesized, cloned into pGEX-6P-1; also called CXCR1 from E.coli; recombinant GST-CXCR1; source: E. coli BL21, purified (Glutathione Agarose with 5% sarkosyl in the lysis buffer, SEC); not shown: GST, N-terminal, kept
T1 sequence: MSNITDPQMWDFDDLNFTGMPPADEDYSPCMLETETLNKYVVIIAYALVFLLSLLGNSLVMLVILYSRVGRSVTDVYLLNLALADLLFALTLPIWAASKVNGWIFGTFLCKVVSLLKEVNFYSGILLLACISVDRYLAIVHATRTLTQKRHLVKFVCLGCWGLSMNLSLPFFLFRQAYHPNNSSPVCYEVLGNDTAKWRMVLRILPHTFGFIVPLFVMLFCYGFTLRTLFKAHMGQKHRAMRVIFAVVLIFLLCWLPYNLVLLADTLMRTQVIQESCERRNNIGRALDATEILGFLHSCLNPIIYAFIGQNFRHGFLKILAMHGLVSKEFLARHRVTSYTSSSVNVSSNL


What was measured:
[1] = molecular target: C0362, C-terminal part of TDE0362 with the Mac-like domain (205–647 aa) (Treponema denticola ATCC 35405) (UniProt Q73QT1); assay: SEC; dimer fraction noted during SEC of purified C0362; column and buffer are not tied to this remark
[2] = molecular target: T1, GST-CXCR1 (recombinant, from E. coli); assay: SPR; GST-CXCR1 coupled (EDC/NHS) to CM5 sensor chips, N0362 flowed over (0.05 or 0.1 µM to 3 µM), 25 °C, dPBS with 0.01% Tween 20, Reichert SR7500DC; kinetics globally fit to a one to two binding model, affinity model for saturation; settings: both partners purified

Molecule | fraction of the total material that was dimer [1] [%] | Kd [2] [nM] | koff [2] [s⁻¹] | kon [2] [M⁻¹ s⁻¹]
C0362, C-terminal part of TDE0362 with the Mac-like domain (205–647 aa) (from UniProt Q73QT1 205-647) (enzyme) | 10 |  |  | 
N0362, the N-terminus of TDE0362 (23–204 aa) (domain or fragment, Alexa Fluor 488 label (only in the immunofluorescence on cells), TDE0362 of Treponema denticola ATCC 35405 (647 aa pre-protein), residues 23-204 with both bacterial Ig-like domains Big_1 and Big_2; Cloned in pET100/D-TOPO, which encodes the N-terminal 6xHis-tag; The same construct was used unlabelled (pull-down, ELISA, SPR) and labelled with Alexa Fluor 488 (cells); also called recombinant N0362; His-tagged N0362; source: E. coli BL21-CodonPlus (DE3)-RIL, …) KNNLLTKTEKEKSGEIPVKNIILSPNKSEFSLEKNTAQTITVKIIPEKATNKALIYSSKHGDIASIDNTGLITAKKEGRTIITIEASNGVKKTIDVIVTPEPIPVTNIEFEEEPPAFLFIGDVYIFKAKAKPDEATNRKLEYTTMTSDVISVTNTELGTMKATKEGNAAITIRSASTPSVAK |  | 264 ± 2.3 | 0.000857 | 4950
